Results from article PMC3236778.
Blank lines part the entries; values can stand above or below the molecule they belong to.

Legend:
[1] = target: GkDnaC helicase, wild-type (replicative helicase of Geobacillus kaustophilus HTA426) (Geobacillus kaustophilus HTA426)
[2] = target: GkDnaC K309A mutant (Geobacillus kaustophilus HTA426); experiment: SEC; size-exclusion column during purification; data not shown
[3] = target: GkDnaC R420A mutant (arginine finger) (Geobacillus kaustophilus HTA426); experiment: as above
[4] = target: GkDnaC helicase, wild-type (replicative helicase of Geobacillus kaustophilus HTA426) (Geobacillus kaustophilus HTA426); experiment: as above

Molecule: GkDnaC K309A mutant (enzyme)
stoichiometry N [2]: 6

Molecule: GkDnaC helicase, wild-type (replicative helicase of Geobacillus kaustophilus HTA426) (enzyme)
stoichiometry N [4]: 6

B1: GkDnaG primase, full-length wild-type (enzyme)
chain: MGHRIPEETIEAIRRGVDIVDVIGEYVQLKKQGRNYFGLCPFHGEKTPSFSVSPEKQIFHCFGCGAGGNAFTFLMDIEGIPFVEAAKRLAAKAGIDLSAYELDSRGSDGSRADEAKAMVEAHTLLKRFYHHLLVHTKEGQAALDYLQVRGWTKETIDRFEIGYAPDVPDAAVRLLESRSFPLVLMEKAGLLVKKEDGRYVDRFRNRIMFPIHDHRGETVGFSGRLLGDGQPKYMNSPETPIFRKGTLLYFFHEARVSIRKRQEALLVEGFADVISAVQAGVDYVVATMGTSLTEEQARILRRHAETVTICYDGDSAGTEAAWRAAEQLSAFGCRVKVALLPDGLDPDEYIRTCGADRFAEEIAAARPLMAFKMDRLRRGKNLQEEGDRLRYIEEALREISKLSSPVEKDYYMRQLADEFSLSLSALYEQLSRSKPEQPKPQVNDGGKPVRPALTKKLLPAFQNAERLLLAHMMRSRDVAFIVQEQVGGRFNIEEHRALAAYIYAFYEEGHEADPSALMSRLPGELRTLASELSLLLVADDVSDRELADCIRHVLNHPKWLMLKEKEQEKTEAERRKDFLTAARIAKEMIEMKKMLSSS
ATPase activity of the GkDnaC-GkDnaG complex (NADH-coupled assay) [1]: 79.5 µM/min
unwinding efficiency (fold, against GkDnaC alone), gel shift assay of fork DNA unwinding [1]: 1.45 fold
unwinding velocity of the GkDnaC-GkDnaG complex (smTPM) [1]: 7.44 bp/s

Second part, the molecule after the results:

ATPase activity of the GkDnaC-GkDnaI complex (NADH-coupled assay) [1]: 18.1 µM/min
unwinding efficiency (fold, against GkDnaC alone), gel shift assay of fork DNA unwinding [1]: 0.15 fold
Molecule: GkDnaI helicase loader (natural protein)

stoichiometry N [3]: 6
Molecule: GkDnaC R420A mutant (arginine finger) (enzyme)
